In article doi:10.1101/411793:

System: DosR (phosphorylated) (Mycobacterium tuberculosis)
Test: EMSA

hspX promoter probe was tested, and the binding signal (fold inhibition of binding vs DMSO) was 22.
